Data on one molecule can be found in patent publication US20080096809A1.

The target of this experiment is Tar-1 all-L NBD peptide (Escherichia coli). The experiment in a line: FRET in PE/PG (7:3 w/w) SUV, NBD donor and rhodamine-TAMRA acceptor, acceptor-to-lipid ratio 1:7500.

With KKKMVLGVFALLQLISGSLKK (modifications not checked) [Tar-1 diastereomeric rhodamine peptide], the energy transfer turned out to be 30%.
